From PMC6378094

Substrate: NC(=O)C[C@H](N)C(=O)O
Assay: purified protein
Conditions: 50 mM Tris-HCl, pH 8.6, 37 °C

Protein	Km [µM]	kcat [s⁻¹]	kcat/Km [M⁻¹ s⁻¹]
ASPase A1 (Bacillus licheniformis) (protein) MNKKVALITTGGTIASRKTESGRLAAGAISGPELAEMCSLPEDVQIDVYPAFQLPSMHITFEHLLELKQTIERVFQNGGYDGAVVTHGTDTLEETAYFLDLTIEDERPVVVTGSQRAPEQQGTDAYTNIRHAVYTACSPDIKGAGTVVVFNERIFNARYVKKVHASNLQGFDVFGFGYLGIIDNDKVYVYQKPLKRDVHQLQRPLPAVDIVKCYLDGDGKFIRAAVREGVEGIVLEGVGRGQVPPNMMADIEQALNQGVYIVITTSAEEGEVYTTYDYAGSSYDLAKKGVILGKDYDSKKARMKLAVLLASYKEGLKDKFCY	10.30	24	2.33e+06
ASPase E (Leunase) (Escherichia coli K-12) (protein) LPNITILATGGTIAGGGDSATKSNYTVGKVGVENLVNAVPQLKDIANVKGEQVVNIGSQDMNDNVWLTLAKKINTDCDKTDGFVITHGTDTMEETAYFLDLTVKCDKPVVMVGAMRPSTSMSADGPFNLYNAVVTAADKASANRGVLVVMNDTVLDGRDVTKTNTTDVATFKSVNYGPLGYIHNGKIDYQRTPARKHTSDTPFDVSKLNELPKVGIVYNYANASDLPAKALVDAGYDGIVSAGVGNGNLYKSVFDTLATAAKTGTAVVRSSRVPTGATTQDAEVDDAKYGFVASGTLNPQKARVLLQLALTQTKDPQQIQQIFNQY	5.788	7.73	1.34e+06
